Measurements reported in US20240409619A1.

Assays:
Test in all cases: cell-based or functional assay
[1] = target: SARS-COV-2 spike of variant B.1.1.7 (Alpha) on pseudotyped virus (SARS-COV-2) (UniProt P0DTC2)
[2] = target: SARS-COV-2 spike of variant B.1.351 (Beta) on pseudotyped virus (SARS-COV-2) (UniProt P0DTC2)
[3] = target: SARS-COV-2 spike of variant B.1.526 (Iota) on pseudotyped virus (SARS-COV-2) (UniProt P0DTC2)
[4] = target: SARS-COV-2 spike of variant B.1.617.2 (Delta) on pseudotyped virus (SARS-COV-2) (UniProt P0DTC2)

Substance | fold reduction in ID50, pseudovirus neutralization [1] | fold reduction in ID50, pseudovirus neutralization [2] | fold reduction in ID50, pseudovirus neutralization [3] | fold reduction in ID50, pseudovirus neutralization [4] | fold change of pseudovirus neutralization against WA1/2020 [2]
DMAb 2130_FcTM (antibody) | < 3 fold | < 3 fold | < 3 fold | < 3 fold | 
DMAb REGN10987 (antibody) |  |  |  |  | < 3 fold
